Key:
BSA [1] = biological target: BSA (UniProt P02769); assay: phage ELISA, control well (BSA blocking solution only); phage 1 ng/well; 100% = SEQ 5 phage at 710 ng/well
BSA [2] = biological target: BSA (UniProt P02769); assay: phage ELISA, control well (BSA blocking solution only); phage 3 ng/well; 100% = SEQ 5 phage at 710 ng/well
BSA [3] = biological target: BSA (UniProt P02769); assay: phage ELISA, control well (BSA blocking solution only); phage 20 ng/well; 100% = SEQ 5 phage at 710 ng/well
BSA [4] = biological target: BSA (UniProt P02769); assay: phage ELISA, control well (BSA blocking solution only); phage 122 ng/well; 100% = SEQ 5 phage at 710 ng/well
BSA [5] = biological target: BSA (UniProt P02769); assay: phage ELISA, control well (BSA blocking solution only); phage 796 ng/well; 100% = SEQ 5 phage at 710 ng/well
BSA [6] = biological target: BSA (UniProt P02769); assay: phage ELISA, control well (BSA blocking solution only); phage 0 ng/well (printed); 100% = SEQ 5 phage at 710 ng/well
BSA [7] = biological target: BSA (UniProt P02769); assay: phage ELISA, control well (BSA blocking solution only); phage 4 ng/well; 100% = SEQ 5 phage at 710 ng/well
BSA [8] = biological target: BSA (UniProt P02769); assay: phage ELISA, control well (BSA blocking solution only); phage 22 ng/well; 100% = SEQ 5 phage at 710 ng/well
BSA [9] = biological target: BSA (UniProt P02769); assay: phage ELISA, control well (BSA blocking solution only); phage 134 ng/well; 100% = SEQ 5 phage at 710 ng/well
BSA [10] = biological target: BSA (UniProt P02769); assay: phage ELISA, control well (BSA blocking solution only); phage 870 ng/well; 100% = SEQ 5 phage at 710 ng/well
BSA [11] = biological target: BSA (UniProt P02769); assay: phage ELISA, control well (BSA blocking solution only); phage 18 ng/well; 100% = SEQ 5 phage at 710 ng/well
BSA [12] = biological target: BSA (UniProt P02769); assay: phage ELISA, control well (BSA blocking solution only); phage 109 ng/well; 100% = SEQ 5 phage at 710 ng/well
BSA [13] = biological target: BSA (UniProt P02769); assay: phage ELISA, control well (BSA blocking solution only); phage 710 ng/well; 100% = SEQ 5 phage at 710 ng/well
BSA [14] = biological target: BSA (UniProt P02769); assay: phage ELISA, control well (BSA blocking solution only); phage 132 ng/well; 100% = SEQ 5 phage at 710 ng/well
BSA [15] = biological target: BSA (UniProt P02769); assay: phage ELISA, control well (BSA blocking solution only); phage 859 ng/well; 100% = SEQ 5 phage at 710 ng/well

Sequence of BSA (P02769 25-607 limits assumed): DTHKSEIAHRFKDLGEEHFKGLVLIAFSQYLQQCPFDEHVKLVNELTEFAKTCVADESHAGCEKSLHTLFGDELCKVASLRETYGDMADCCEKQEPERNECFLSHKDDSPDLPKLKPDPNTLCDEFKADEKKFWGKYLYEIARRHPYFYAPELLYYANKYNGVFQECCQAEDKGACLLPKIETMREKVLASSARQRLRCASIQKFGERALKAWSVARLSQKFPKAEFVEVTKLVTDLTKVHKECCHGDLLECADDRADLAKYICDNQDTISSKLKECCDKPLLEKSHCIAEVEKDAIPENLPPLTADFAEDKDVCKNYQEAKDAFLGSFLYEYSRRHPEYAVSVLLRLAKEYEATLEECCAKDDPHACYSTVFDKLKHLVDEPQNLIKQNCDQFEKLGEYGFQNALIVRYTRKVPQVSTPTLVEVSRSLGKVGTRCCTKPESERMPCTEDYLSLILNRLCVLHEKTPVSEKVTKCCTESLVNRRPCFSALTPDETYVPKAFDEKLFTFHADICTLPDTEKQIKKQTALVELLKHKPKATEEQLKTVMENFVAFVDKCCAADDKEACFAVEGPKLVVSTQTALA

Row | Binder | percentage of binding (BSA [1]) | percentage of binding (BSA [2]) | percentage of binding (BSA [3]) | percentage of binding (BSA [4]) | percentage of binding (BSA [5]) | percentage of binding (BSA [6]) | percentage of binding (BSA [7]) | percentage of binding (BSA [8]) | percentage of binding (BSA [9]) | percentage of binding (BSA [10]) | percentage of binding (BSA [11]) | percentage of binding (BSA [12]) | percentage of binding (BSA [13]) | percentage of binding (BSA [14]) | percentage of binding (BSA [15])
1 | LWQPPLIPGIDF (peptide, not shown: large carriers) [phage presenting SEQ ID NO: 2 (…)] | 1% | 2% | 4% | 9% | 12% | 0% | – | – | – | – | – | – | – | – | –
2 | TRLAPLVFPLDY (peptide, not shown: large carriers) [phage presenting SEQ ID NO: 4 (…)] | 0% | – | – | – | – | 0% | 0% | 1% | 4% | 10% | – | – | – | – | –
3 | SWLQMPWALVRT (peptide, not shown: large carriers) [phage presenting SEQ ID NO: 5 (…)] | 0% | 1% | – | – | – | 0% | – | – | – | – | 1% | 3% | 5% | – | –
4 | QIEPWFTPEDFP (peptide, not shown: large carriers) [phage presenting SEQ ID NO: 3 (…)] | 0% | – | – | – | – | 0% | 1% | 2% | – | – | – | – | – | 5% | 10%

— US20060122108A1
